Reference: paper PMC10807245, “A functional and structural comparative analysis of large tumor antigens reveals evolution of different importin α‐dependent nuclear localization signals” (Protein Science : A Publication of the Protein Society, 2024)
Primed or numbered codes have the meaning given here. Where no end group is shown, it is not given here. FITC′ = fluorescein isothiocyanate; Ahx = NCCCCCC(=O)O

What was measured:
Conditions in all cases: both partners purified
[1] = target: T1, mouse importin α2 lacking the IBB domain (IMPα2ΔIBB) (mouse, UniProt P52293 70-529); assay: native gel or EMSA; 1.5% agarose gel in TB buffer (0.45 mM tris, 0.45 mM boric acid, pH 8.5), 70 V for 2 h; IMPαΔIBB ± FITC-cNLS peptide; UV image for the peptide, Coomassie for the protein
[2] = target: T2, human importin α1 lacking the IBB domain (IMPα1ΔIBB) (human, UniProt P52292 70-529); assay: as above
[3] = target: T3, human importin α3 lacking the IBB domain (IMPα3ΔIBB) (human, UniProt O00629 64-521); assay: as above
T3 sequence (looked up): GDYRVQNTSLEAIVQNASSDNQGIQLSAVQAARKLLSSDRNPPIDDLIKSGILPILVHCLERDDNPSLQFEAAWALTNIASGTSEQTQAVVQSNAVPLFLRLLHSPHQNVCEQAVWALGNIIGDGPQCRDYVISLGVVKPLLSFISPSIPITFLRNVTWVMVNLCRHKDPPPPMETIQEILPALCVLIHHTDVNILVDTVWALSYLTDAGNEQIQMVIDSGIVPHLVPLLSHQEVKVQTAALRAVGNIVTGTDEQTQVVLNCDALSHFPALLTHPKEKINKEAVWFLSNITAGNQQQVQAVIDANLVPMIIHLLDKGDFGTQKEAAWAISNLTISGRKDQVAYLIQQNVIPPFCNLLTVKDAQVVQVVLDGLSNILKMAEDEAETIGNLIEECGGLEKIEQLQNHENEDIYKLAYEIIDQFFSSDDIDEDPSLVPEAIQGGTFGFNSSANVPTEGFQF

[4] = target: human importin α5 lacking the IBB domain (IMPα5ΔIBB) (human, UniProt P52294 73-538); assay: as above
[5] = target: human importin α7 lacking the IBB domain (IMPα7ΔIBB) (human, UniProt O60684 73-536); assay: as above
[6] = target: T1, mouse importin α2 lacking the IBB …; assay: crystal structure
[7] = target: T2, human importin α1 lacking the IBB …; assay: fluorescence polarisation; two-fold dilutions of IMPαΔIBB titrated against FITC-cNLS peptide in tris-buffered saline, 200 μL; one site specific binding fit; triplicate

Sequence of human importin α5 lacking the IBB domain (IMPα5ΔIBB) (P52294 73-538, stated change not applied): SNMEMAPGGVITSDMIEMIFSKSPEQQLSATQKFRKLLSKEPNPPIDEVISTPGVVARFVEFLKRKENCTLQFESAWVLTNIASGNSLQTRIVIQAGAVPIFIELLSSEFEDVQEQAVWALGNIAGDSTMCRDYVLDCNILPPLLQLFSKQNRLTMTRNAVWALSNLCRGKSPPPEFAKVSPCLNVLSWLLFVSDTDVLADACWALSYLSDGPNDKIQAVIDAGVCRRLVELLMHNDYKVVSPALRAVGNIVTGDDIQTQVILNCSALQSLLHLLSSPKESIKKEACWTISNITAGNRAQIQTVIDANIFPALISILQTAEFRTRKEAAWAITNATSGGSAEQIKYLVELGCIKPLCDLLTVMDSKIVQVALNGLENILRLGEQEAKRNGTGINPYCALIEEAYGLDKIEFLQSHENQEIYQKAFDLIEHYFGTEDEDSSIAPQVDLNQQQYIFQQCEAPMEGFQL
Sequence of human importin α7 lacking the IBB domain (IMPα7ΔIBB) (O60684 73-536, stated change not applied): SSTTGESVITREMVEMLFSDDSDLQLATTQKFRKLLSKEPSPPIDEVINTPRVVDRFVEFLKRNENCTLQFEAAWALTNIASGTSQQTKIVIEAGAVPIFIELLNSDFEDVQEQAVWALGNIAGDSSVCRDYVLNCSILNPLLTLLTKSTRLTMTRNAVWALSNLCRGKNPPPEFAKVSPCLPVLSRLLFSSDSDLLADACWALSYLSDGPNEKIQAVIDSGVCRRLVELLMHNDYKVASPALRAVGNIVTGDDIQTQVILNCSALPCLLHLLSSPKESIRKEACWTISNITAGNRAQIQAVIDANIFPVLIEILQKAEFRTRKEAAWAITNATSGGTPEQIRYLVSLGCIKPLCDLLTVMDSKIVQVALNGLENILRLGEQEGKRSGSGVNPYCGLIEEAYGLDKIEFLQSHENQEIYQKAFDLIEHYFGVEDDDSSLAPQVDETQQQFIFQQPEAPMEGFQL

| Binder | binding result [1] | binding result [2] | binding result [3] | binding result [4] | binding result [5] | binding result [6] | Kd [7] |
| --- | --- | --- | --- | --- | --- | --- | --- |
| {FITC′-Ahx}-KRKFPDSSTQNSTPPKKNKPA (also called STLPyV LTA cNLS; STLPyV LTA bipartite cNLS) [STLPyV LTA NLSbip peptide] | binds | binds | binds | binds | binds | – | – |
| {FITC′-Ahx}-PKKRPRESSSNSTCTPPKRPRNF (also called MWPyV LTA cNLS; MWPyV LTA bipartite cNLS) [MWPyV LTA NLSbip peptide] | binds | binds | binds | binds | binds | – | – |
| {FITC′-Ahx}-MFASDDENTGSQHSTPPKKKKKV (also called JCPyV LTA cNLS; JCPyV LTA monopartite cNLS) [JCPyV LTA NLS peptide] | – | – | binds | binds | binds | binds | 76 to 270 nM |
| {FITC′-Ahx}-PFSRKRKFGGSRSSASSASSASFTSTPPKPKKNRE (also called MCPyV LTA cNLS; bipartite MCPyV LTA NLS; source: synthetic peptide (solid phase, HPLC purified)) [MCPyV LTA NLSbip peptide] | binds | binds | binds | binds | binds | – | – |
| {FITC′-Ahx}-KRSAPEEEPSCSQATPPKKKHA (also called KIPyV LTA cNLS; KIPyV LTA bipartite cNLS) [KIPyV LTA NLSbip peptide] | binds | binds | binds | binds | binds | – | – |
| {FITC′}-PFSRKRKFGGS [MCPyV LTA NLSm peptide] | binds | – | – | – | – | – | – |
| {FITC′-Ahx}-KRTREDDEEPQCSQATPPKKKKD (also called WUPyV LTA cNLS; WUPyV LTA bipartite cNLS) [WUPyV LTA NLSbip peptide] | binds | binds | binds | binds | binds | – | – |
